Patent publication US20150110760A1

Tests used:
B7-H6 (human) = B7-H6 (human) (UniProt Q68D85); assay: cell-based or functional assay
[1] = biological target: NKp30 ligands on human dendritic cells (iDCs and mDCs); assay: cell-based or functional assay

UniProt Q68D85, sequence (Q68D85 25-454): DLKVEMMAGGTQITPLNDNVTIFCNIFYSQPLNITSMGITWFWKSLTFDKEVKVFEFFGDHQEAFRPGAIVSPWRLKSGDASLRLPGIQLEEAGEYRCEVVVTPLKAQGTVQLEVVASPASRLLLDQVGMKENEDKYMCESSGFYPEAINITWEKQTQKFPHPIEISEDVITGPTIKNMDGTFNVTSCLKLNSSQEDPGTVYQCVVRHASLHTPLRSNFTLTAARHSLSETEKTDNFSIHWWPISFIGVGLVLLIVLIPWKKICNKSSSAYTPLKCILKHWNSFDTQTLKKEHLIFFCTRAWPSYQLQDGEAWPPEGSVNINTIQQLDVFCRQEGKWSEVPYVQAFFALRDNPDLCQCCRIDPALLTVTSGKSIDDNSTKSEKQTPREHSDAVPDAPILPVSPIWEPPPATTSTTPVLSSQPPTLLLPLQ

Substance	specific lysis of RMA/B7-H6 cells by transduced mouse T cells, 5-h LDH release, E:T 1:1 (B7-H6 (human)) [%]	IFN-γ production by transduced human T cells after 24 h coculture with iDCs or mDCs (5:1), ELISA [1] [pg/mL]
NKp30-CD3ζ chimeric receptor	80	
NKp30-CD28-CD3ζ chimeric receptor	80	200 to 800
